Test results from publication PMC12753876 (2025).

B1: CRY1^(PHR WT) in pGADT7 (AD) [Arabidopsis thaliana] / HsFA3^WT in pGBKT7 (BD) [Arabidopsis thaliana] (parent complex)
chain 1: MSGSVSGCGSGGCSIVWFRRDLRVEDNPALAAAVRAGPVIALFVWAPEEEGHYHPGRVSRWWLKNSLAQLDSSLRSLGTCLITKRSTDSVASLLDVVKSTGASQIFFNHLYDPLSLVRDHRAKDVLTAQGIAVRSFNADLLYEPWEVTDELGRPFSMFAAFWERCLSMPYDPESPLLPPKKIISGDVSKCVADPLVFEDDSEKGSNALLARAWSPGWSNGDKALTTFINGPLLEYSKNRRKADSATTSFLSPHLHFGEVSVRKVFHLVRIKQVAWANEGNEAGEESVNLFLKSIGLREYSRYISFNHPYSHERPLLGHLKFFPWAVDENYFKAWRQGRTGYPLVDAGMRELWATGWLHDRIRVVVSSFFVKVLQLPWRWGMKYFWDTLLDADLESDALGWQYITGTLPDSREFDRIDNPQFEGYKFDPNGEYVRRWLPELSRLPTDWIHHPWNAPESVLQAAGIELGSNYPLPIVGLDEAKARLHEALSQMWQLEAASRAAIENGSEE
chain 2: not shown

Variants of: B1
Test: yeast two-hybrid (beta-galactosidase, Miller units); n=3; parent: 280; read off a plot

response	Variant
~280 Miller Units	chain 1 K332E, chain 1 R335E
~210 Miller Units	chain 1 K332E
~210 Miller Units	chain 1 R335E

Variants of: B1
Test: as above
Remark: another data set of the same source

response	Variant
~300 Miller Units	chain 1 K332A, chain 1 R335A

Variants of: B1
Test: as above
Remark: another data set of the same source

response	Variant
~150 Miller Units	chain 1 R211A, chain 1 R435A
